For assay [1], the target named is T1, soluble CD73 dimer (human, UniProt P21589 27-549, limits assumed).
T1 construct: CD73 in the flow (SPR) or in solution (BLI binning); also called soluble human CD73
T1 sequence: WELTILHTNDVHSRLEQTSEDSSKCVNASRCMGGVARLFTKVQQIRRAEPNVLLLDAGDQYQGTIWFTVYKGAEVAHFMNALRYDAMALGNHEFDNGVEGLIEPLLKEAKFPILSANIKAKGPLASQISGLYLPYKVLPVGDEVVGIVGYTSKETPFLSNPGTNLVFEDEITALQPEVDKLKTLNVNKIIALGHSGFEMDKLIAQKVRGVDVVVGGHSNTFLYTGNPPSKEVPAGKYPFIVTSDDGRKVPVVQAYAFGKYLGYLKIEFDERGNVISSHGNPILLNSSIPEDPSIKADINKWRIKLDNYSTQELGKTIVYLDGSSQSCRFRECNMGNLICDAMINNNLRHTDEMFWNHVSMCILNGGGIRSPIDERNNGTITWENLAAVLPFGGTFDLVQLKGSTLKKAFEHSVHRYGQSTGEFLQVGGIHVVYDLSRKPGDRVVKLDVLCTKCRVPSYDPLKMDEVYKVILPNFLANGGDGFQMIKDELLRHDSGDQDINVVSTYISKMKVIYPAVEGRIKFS
Briefly: SPR, antibody captured on Protein A chip, CD73 in flow; biphasic fit, component of abundance 30%. In general terms: SPR reads the build-up and loss of mass on a sensor chip optically.

Assay [2] deals with T1, soluble CD73 dimer. The assay is described as follows: SPR; KD from Langmuir ka and kd of the principal dissociation component.
Assay [3] concerns the target T1, soluble CD73 dimer. The assay is described as follows: SPR, antibody on the solid support, soluble CD73 dimer in solution.
Assay [4] concerns the target T1, soluble CD73 dimer. The assay is described as follows: SPR, antibody captured on Protein A chip, CD73 in flow; Langmuir ka with major component kd.
For assay [5], the target named is T2, human CD73 on COR-L23 lung carcinoma cells (human) (UniProt P21589).
T2 sequence: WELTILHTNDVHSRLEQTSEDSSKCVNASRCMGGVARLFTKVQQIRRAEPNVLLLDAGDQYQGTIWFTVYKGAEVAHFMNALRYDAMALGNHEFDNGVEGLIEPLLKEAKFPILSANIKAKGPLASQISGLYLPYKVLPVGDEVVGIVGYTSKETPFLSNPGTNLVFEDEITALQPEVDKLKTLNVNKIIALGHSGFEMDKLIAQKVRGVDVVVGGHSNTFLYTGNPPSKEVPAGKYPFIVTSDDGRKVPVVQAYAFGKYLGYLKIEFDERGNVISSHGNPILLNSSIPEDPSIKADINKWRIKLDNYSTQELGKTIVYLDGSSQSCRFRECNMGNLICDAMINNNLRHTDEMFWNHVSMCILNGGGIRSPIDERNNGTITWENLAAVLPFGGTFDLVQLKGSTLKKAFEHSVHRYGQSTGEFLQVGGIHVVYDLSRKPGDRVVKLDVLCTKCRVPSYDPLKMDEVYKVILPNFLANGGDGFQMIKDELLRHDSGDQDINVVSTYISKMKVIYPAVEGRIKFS
The assay is described as follows: cell-based or functional assay.

The target of assay [6] is T1, soluble CD73 dimer. Briefly: SPR, antibody captured on chip, CD73 in flow; biphasic fit, share by T0 intercept of the component with kd 7.86E-05 1/s.
Assay [7] concerns the target T1, soluble CD73 dimer. Briefly: SPR, antibody captured on chip, CD73 in flow; biphasic fit, share by T0 intercept of the component with kd 7.06E-03 1/s.
The target in assay [8] is T1, soluble CD73 dimer. Briefly: SPR, antibody captured on Protein A chip, CD73 in flow; Langmuir 1:1 fit.
Assay [9] deals with T1, soluble CD73 dimer. Briefly: SPR, antibody captured on chip, CD73 in flow; biphasic fit, share after 300 s binding phase of the component with ka 1.50E+06 1/Ms.
The target of assay [10] is T1, soluble CD73 dimer. The assay is described as follows: SPR dissociation kinetics.
For assay [11], the target named is T1, soluble CD73 dimer. Briefly: SPR, antibody captured on Protein A chip, CD73 in flow; biphasic fit, component of abundance 86%.
Assay [12] deals with T1, soluble CD73 dimer. Briefly: SPR, antibody captured on Protein A chip, CD73 in flow; biphasic fit, component of abundance 14%.
Assay [13] deals with T1, soluble CD73 dimer. The assay is described as follows: SPR, antibody captured on chip, CD73 in flow; biphasic fit, share after 300 s binding phase of the component with ka 3.24E+05 1/Ms.
The target in assay [14] is T1, soluble CD73 dimer. The assay is described as follows: SPR, antibody captured on Protein A chip, CD73 in flow; biphasic fit, component of abundance 70%.
Assay [15] concerns the target T3, human CD73 on COR-L23 lung carcinoma cells (human, UniProt P21589 27-549).
T3 sequence: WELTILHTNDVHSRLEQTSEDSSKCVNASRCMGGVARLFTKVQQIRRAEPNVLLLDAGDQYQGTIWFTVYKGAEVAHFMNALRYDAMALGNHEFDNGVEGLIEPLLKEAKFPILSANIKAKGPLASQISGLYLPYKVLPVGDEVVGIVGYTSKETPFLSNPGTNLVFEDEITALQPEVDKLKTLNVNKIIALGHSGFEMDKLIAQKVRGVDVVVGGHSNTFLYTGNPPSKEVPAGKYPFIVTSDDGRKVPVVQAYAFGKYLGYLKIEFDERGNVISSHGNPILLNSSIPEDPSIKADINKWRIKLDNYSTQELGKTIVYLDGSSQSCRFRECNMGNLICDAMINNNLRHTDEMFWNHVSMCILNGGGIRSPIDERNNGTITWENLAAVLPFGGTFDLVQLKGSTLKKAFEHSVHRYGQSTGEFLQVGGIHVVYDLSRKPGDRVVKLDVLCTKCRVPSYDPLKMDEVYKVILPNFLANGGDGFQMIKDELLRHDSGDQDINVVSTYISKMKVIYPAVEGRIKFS
The assay is described as follows: cell-based or functional assay.

The target in assay [16] is T1, soluble CD73 dimer. Briefly: SPR, antibody captured on Protein A chip, CD73 in flow; biphasic fit, component of abundance 100%.
Assay [17] deals with T1, soluble CD73 dimer. The assay is described as follows: SPR, antibody captured on chip, CD73 in flow; biphasic fit, share by T0 intercept of the component with kd 2.46E-04 1/s.
In assay [18] the target is T1, soluble CD73 dimer. Briefly: SPR, antibody captured on chip, CD73 in flow; biphasic fit, share after 300 s binding phase of the component with ka 7.03E+05 1/Ms.
Assay [19] deals with T1, soluble CD73 dimer. Briefly: SPR, antibody captured on Protein A chip, CD73 in flow; biphasic fit, component of abundance 45%.
Assay [20] addresses T1, soluble CD73 dimer. Briefly: SPR, antibody captured on chip, CD73 in flow; biphasic fit, share after 300 s binding phase of the component with ka 5.31E+06 1/Ms.
In assay [21] the target is T1, soluble CD73 dimer. The assay is described as follows: SPR, antibody captured on Protein A chip, CD73 in flow; biphasic fit, component of abundance 55%.
Assay [22] addresses T2, human CD73 on COR-L23 lung carcinoma cells (human).

B1: CL25/TB19 (bispecific antibody, part only; not given: CL25 arm; constant regions, V domains shown, part only)
VH: QEQLQESGPGLVKPSETLSLTCTVSGGSIRNNYYNWIRQPAGKGLEWIGRIYISGTTNSNPSLKSRVTMSIDTSKNQFSLKLSSVTAADTAIYYCAREHYVSGTSLDNWGQGTLVTVSS
VL: EIVMTQSPTTLSLSPGERATLSCRASQSVNTNYFSWYQQKPGLTPRLLIYGTSTRATGIPARFSGSGSGTDFTLTISSLQPEDFGIYYCQQDYNLPYTFGQGTYLEIK
As a reminder, the kon is the second-order rate constant of association. The low end stands for slow association, the high end for fast association. In general, Kd refers to the constant that tells how readily two partners part at equilibrium. Read a low Kd as higher affinity. The term koff denotes the first-order rate constant of dissociation. A higher koff goes with a short-lived complex. B1: the on-rate constant (kon) with soluble CD73 dimer [1] is 1.5e+06 M⁻¹ s⁻¹; with soluble CD73 dimer [8], 493000 M⁻¹ s⁻¹; with soluble CD73 dimer [14], 324000 M⁻¹ s⁻¹. Besides, the fold increase of apparent affinity (KD) over either monovalent parental antibody with soluble CD73 dimer [2] was 26 fold. The fold lower KD than either parental antibody in the assay with soluble CD73 dimer [3] came to 15 fold. The same molecule returned a Kd with soluble CD73 dimer [4] of 0.16 nM. The molecule further displayed an EC50 (nM) of inhibition of CD73 activity (adenosine by LC/MS) in [5] of 0.619 nM. The same molecule displayed a Max Inhib. (projected maximal inhibition at saturating antibody) in [5] of 97%. For the same molecule, the abundance of dissociation component (biphasic fit) was found to be 86% with soluble CD73 dimer [6] and 14% with soluble CD73 dimer [7]. For the same molecule, the koff in the assay with soluble CD73 dimer [8] worked out at 0.00013 s⁻¹; with soluble CD73 dimer [11], 7.86e-05 s⁻¹; in the assay with soluble CD73 dimer [12] it was 0.00706 s⁻¹. The results for the abundance of association component (biphasic fit) with soluble CD73 dimer [9] and in the assay with soluble CD73 dimer [13] were 30% and 70%, respectively. Further, the fold more stable (kd of the principal component) than with either monovalent parental in the assay with soluble CD73 dimer [10] is 8.8 fold.

B2: TB19/TB38 (bispecific antibody, V domains shown)
VH 1: QEQLQESGPGLVKPSETLSLTCTVSGGSIRNNYYNWIRQPAGKGLEWIGRIYISGTTNSNPSLKSRVTMSIDTSKNQFSLKLSSVTAADTAIYYCAREHYVSGTSLDNWGQGTLVTVSS
VL 1: EIVMTQSPTTLSLSPGERATLSCRASQSVNTNYFSWYQQKPGLTPRLLIYGTSTRATGIPARFSGSGSGTDFTLTISSLQPEDFGIYYCQQDYNLPYTFGQGTYLEIK
VH 2: QVQLVESGGGVVQPGRSLRLSCAASGFTFSSYGMHWVRQAPGKGLEWVAVFWYDGSNKYYADSVKGRFTISRDNSKNTLYLQMNSLSAEDTAVYYCARAPNWDDAFDIWGQGTMVTVSS
VL 2: QTVVTQEPSFSVSPGGTVTLTCGLSSGSVSTSYYPNWYQQTPGQAPRTLIYSTNTRSSGVPDRFSGSILGNKAALTITGAQADDESDYYCVLFMGSGIWVFGGGTKLTVL
notes: Biparatopic human IgG1 made by Fab-arm exchange; also called TB19/TB38 biparatopic antibody
Consider B2, for which, in the assay with soluble CD73 dimer [4], the Kd was found to be 0.555 nM. Moreover, the “EC50 (nM) of inhibition of CD73 activity (adenosine by LC/MS)” value in assay [15] is 0.777 nM. In the assay with soluble CD73 dimer [8], this molecule registered a koff of 0.000102 s⁻¹ and a kon of 184000 M⁻¹ s⁻¹.

B3: TB19/H7 (bispecific antibody, part only; not given: H7 arm; constant regions, V domains shown, part only)
VH: QEQLQESGPGLVKPSETLSLTCTVSGGSIRNNYYNWIRQPAGKGLEWIGRIYISGTTNSNPSLKSRVTMSIDTSKNQFSLKLSSVTAADTAIYYCAREHYVSGTSLDNWGQGTLVTVSS
VL: EIVMTQSPTTLSLSPGERATLSCRASQSVNTNYFSWYQQKPGLTPRLLIYGTSTRATGIPARFSGSGSGTDFTLTISSLQPEDFGIYYCQQDYNLPYTFGQGTYLEIK
As for B3, the dissociation constant (Kd) with soluble CD73 dimer [4] came out at 0.328 nM. Besides, the EC50 (nM) of inhibition of CD73 activity (adenosine by LC/MS) in assay [5] turned out to be 0.27 nM. The molecule also gave a Max Inhib. (projected maximal inhibition at saturating antibody) in assay [5] of 95%. The figures for the koff with soluble CD73 dimer [8] and with soluble CD73 dimer [16] were 0.000149 s⁻¹ and 0.000246 s⁻¹, respectively. Besides, the results for the on-rate constant (kon) with soluble CD73 dimer [8], with soluble CD73 dimer [19] and in the assay with soluble CD73 dimer [21] were 752000 M⁻¹ s⁻¹, 5.31e+06 M⁻¹ s⁻¹ and 703000 M⁻¹ s⁻¹, respectively. This molecule also returned an abundance of dissociation component (biphasic fit) with soluble CD73 dimer [17] of 100%. Moreover, the abundance of association component (biphasic fit) with soluble CD73 dimer [18] was found to be 55%; with soluble CD73 dimer [20], 45%. In addition, the % inhibition of CD73 activity at 1 µg/ml antibody (COR-L23 cells, 4 h, LC/MS); cell TB19 x H7 in assay [22] stood at 93%.

The values are drawn from patent US20220403041A1 (Sanofi, published 2022).
